The source of these data is US20140087995A1 (published 2014).

For orientation: IC50 means the concentration needed to halve the response being measured.

The chains are these.
T1: human amylin receptor (amylin 3(a) receptor: human calcitonin receptor co-expressed with RAMP-3) (human, UniProt P30988 25-474; O60896 24-148, limits assumed)
T1 construct: whole, on cells; Used as cell membranes prepared from the Amylin 3(a)/CRE-luc BHK cells (Assay V); also called hAmylin-R; hAmylinR
T1 sequence (looked up) 1: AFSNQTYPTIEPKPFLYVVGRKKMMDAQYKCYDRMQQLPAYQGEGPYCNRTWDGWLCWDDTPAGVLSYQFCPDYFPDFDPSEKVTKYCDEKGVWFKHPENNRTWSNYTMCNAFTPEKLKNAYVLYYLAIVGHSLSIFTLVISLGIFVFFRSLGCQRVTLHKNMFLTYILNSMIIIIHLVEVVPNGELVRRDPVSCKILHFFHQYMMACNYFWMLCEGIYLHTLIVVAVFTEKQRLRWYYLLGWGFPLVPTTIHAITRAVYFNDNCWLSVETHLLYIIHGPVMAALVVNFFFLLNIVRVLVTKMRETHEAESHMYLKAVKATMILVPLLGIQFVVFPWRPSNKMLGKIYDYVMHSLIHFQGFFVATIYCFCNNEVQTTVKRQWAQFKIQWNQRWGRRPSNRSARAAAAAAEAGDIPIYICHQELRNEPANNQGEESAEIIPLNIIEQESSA
T1 sequence (looked up) 2: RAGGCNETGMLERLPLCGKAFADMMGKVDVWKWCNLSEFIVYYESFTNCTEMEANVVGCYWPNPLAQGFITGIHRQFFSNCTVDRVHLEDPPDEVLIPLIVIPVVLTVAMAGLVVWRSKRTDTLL

B1: N^ε1-[(4S)-4-carboxy-4-(19-carboxynonadecanoylamino)butanoyl]-[Glu14,Arg17,Pro21,Pro27,Pro34,Pro37]-h-amylin (peptide)
peptide: K([γGlu-C20 diacid])CNTATCATQRLAEFLRHSSPNFGAIPSSTNVGPNTP-NH2
modifications: disulfide 2-7; N-terminus assumed
SMILES: CC[C@H](C)[C@H](NC(=O)[C@H](C)NC(=O)CNC(=O)[C@H](Cc1ccccc1)NC(=O)[C@H](CC(N)=O)NC(=O)[C@@H]1CCCN1C(=O)[C@H](CO)NC(=O)[C@H](CO)NC(=O)[C@H](Cc1c[nH]cn1)NC(=O)[C@H](CCCNC(=N)N)NC(=O)[C@H](CC(C)C)NC(=O)[C@H](Cc1ccccc1)NC(=O)[C@H](CCC(=O)O)NC(=O)[C@H](C)NC(=O)[C@H](CC(C)C)NC(=O)[C@H](CCCNC(=N)N)NC(=O)[C@H](CCC(N)=O)NC(=O)[C@@H](NC(=O)[C@H](C)NC(=O)[C@@H]1CSSC[C@H](NC(=O)[C@@H](N)CCCCNC(=O)CC[C@H](NC(=O)CCCCCCCCCCCCCCCCCCC(=O)O)C(=O)O)C(=O)N[C@@H](CC(N)=O)C(=O)N[C@@H]([C@@H](C)O)C(=O)N[C@@H](C)C(=O)N[C@@H]([C@@H](C)O)C(=O)N1)[C@@H](C)O)C(=O)N1CCC[C@H]1C(=O)N[C@@H](CO)C(=O)N[C@@H](CO)C(=O)N[C@H](C(=O)N[C@@H](CC(N)=O)C(=O)N[C@H](C(=O)NCC(=O)N1CCC[C@H]1C(=O)N[C@@H](CC(N)=O)C(=O)N[C@H](C(=O)N1CCC[C@H]1C(N)=O)[C@@H](C)O)C(C)C)[C@@H](C)O
B2: N^ε1-[(4S)-4-carboxy-4-[[(4S)-4-carboxy-4-(19-carboxynonadecanoylamino)butanoyl]amino]butanoyl]-[D-Asp14,Arg17,Pro21,Pro27,Arg35]-h-amylin (peptide)
peptide: K([γGlu-γGlu-C20 diacid])CNTATCATQRLA[dD]FLRHSSPNFGAIPSSTNVGSRTY-NH2
modifications: disulfide 2-7; N-terminus assumed
SMILES: CC[C@H](C)[C@H](NC(=O)[C@H](C)NC(=O)CNC(=O)[C@H](Cc1ccccc1)NC(=O)[C@H](CC(N)=O)NC(=O)[C@@H]1CCCN1C(=O)[C@H](CO)NC(=O)[C@H](CO)NC(=O)[C@H](Cc1c[nH]cn1)NC(=O)[C@H](CCCNC(=N)N)NC(=O)[C@H](CC(C)C)NC(=O)[C@H](Cc1ccccc1)NC(=O)[C@@H](CC(=O)O)NC(=O)[C@H](C)NC(=O)[C@H](CC(C)C)NC(=O)[C@H](CCCNC(=N)N)NC(=O)[C@H](CCC(N)=O)NC(=O)[C@@H](NC(=O)[C@H](C)NC(=O)[C@@H]1CSSC[C@H](NC(=O)[C@@H](N)CCCCNC(=O)CC[C@H](NC(=O)CC[C@H](NC(=O)CCCCCCCCCCCCCCCCCCC(=O)O)C(=O)O)C(=O)O)C(=O)N[C@@H](CC(N)=O)C(=O)N[C@@H]([C@@H](C)O)C(=O)N[C@@H](C)C(=O)N[C@@H]([C@@H](C)O)C(=O)N1)[C@@H](C)O)C(=O)N1CCC[C@H]1C(=O)N[C@@H](CO)C(=O)N[C@@H](CO)C(=O)N[C@H](C(=O)N[C@@H](CC(N)=O)C(=O)N[C@H](C(=O)NCC(=O)N[C@@H](CO)C(=O)N[C@@H](CCCNC(=N)N)C(=O)N[C@H](C(=O)N[C@@H](Cc1ccc(O)cc1)C(N)=O)[C@@H](C)O)C(C)C)[C@@H](C)O
B3: N^ε1-[(4S)-4-carboxy-4-[[(4S)-4-carboxy-4-(19-carboxynonadecanoylamino)butanoyl]amino]butanoyl]-[Glu14,Arg17,Pro21,Pro27,Pro34,Glu35,Pro37]-h-amylin (peptide)
peptide: K([γGlu-γGlu-C20 diacid])CNTATCATQRLAEFLRHSSPNFGAIPSSTNVGPETP-NH2
modifications: disulfide 2-7; N-terminus assumed
SMILES: CC[C@H](C)[C@H](NC(=O)[C@H](C)NC(=O)CNC(=O)[C@H](Cc1ccccc1)NC(=O)[C@H](CC(N)=O)NC(=O)[C@@H]1CCCN1C(=O)[C@H](CO)NC(=O)[C@H](CO)NC(=O)[C@H](Cc1c[nH]cn1)NC(=O)[C@H](CCCNC(=N)N)NC(=O)[C@H](CC(C)C)NC(=O)[C@H](Cc1ccccc1)NC(=O)[C@H](CCC(=O)O)NC(=O)[C@H](C)NC(=O)[C@H](CC(C)C)NC(=O)[C@H](CCCNC(=N)N)NC(=O)[C@H](CCC(N)=O)NC(=O)[C@@H](NC(=O)[C@H](C)NC(=O)[C@@H]1CSSC[C@H](NC(=O)[C@@H](N)CCCCNC(=O)CC[C@H](NC(=O)CC[C@H](NC(=O)CCCCCCCCCCCCCCCCCCC(=O)O)C(=O)O)C(=O)O)C(=O)N[C@@H](CC(N)=O)C(=O)N[C@@H]([C@@H](C)O)C(=O)N[C@@H](C)C(=O)N[C@@H]([C@@H](C)O)C(=O)N1)[C@@H](C)O)C(=O)N1CCC[C@H]1C(=O)N[C@@H](CO)C(=O)N[C@@H](CO)C(=O)N[C@H](C(=O)N[C@@H](CC(N)=O)C(=O)N[C@H](C(=O)NCC(=O)N1CCC[C@H]1C(=O)N[C@@H](CCC(=O)O)C(=O)N[C@H](C(=O)N1CCC[C@H]1C(N)=O)[C@@H](C)O)C(C)C)[C@@H](C)O
B4: N^ε1-[(4S)-4-carboxy-4-[[(4S)-4-carboxy-4-(19-carboxynonadecanoylamino)butanoyl]amino]butanoyl]-[Glu14,Arg17,Pro21,Pro27,Pro34,Phe37]-h-amylin (peptide)
peptide: K([γGlu-γGlu-C20 diacid])CNTATCATQRLAEFLRHSSPNFGAIPSSTNVGPNTF-NH2
modifications: disulfide 2-7; N-terminus assumed
SMILES: CC[C@H](C)[C@H](NC(=O)[C@H](C)NC(=O)CNC(=O)[C@H](Cc1ccccc1)NC(=O)[C@H](CC(N)=O)NC(=O)[C@@H]1CCCN1C(=O)[C@H](CO)NC(=O)[C@H](CO)NC(=O)[C@H](Cc1c[nH]cn1)NC(=O)[C@H](CCCNC(=N)N)NC(=O)[C@H](CC(C)C)NC(=O)[C@H](Cc1ccccc1)NC(=O)[C@H](CCC(=O)O)NC(=O)[C@H](C)NC(=O)[C@H](CC(C)C)NC(=O)[C@H](CCCNC(=N)N)NC(=O)[C@H](CCC(N)=O)NC(=O)[C@@H](NC(=O)[C@H](C)NC(=O)[C@@H]1CSSC[C@H](NC(=O)[C@@H](N)CCCCNC(=O)CC[C@H](NC(=O)CC[C@H](NC(=O)CCCCCCCCCCCCCCCCCCC(=O)O)C(=O)O)C(=O)O)C(=O)N[C@@H](CC(N)=O)C(=O)N[C@@H]([C@@H](C)O)C(=O)N[C@@H](C)C(=O)N[C@@H]([C@@H](C)O)C(=O)N1)[C@@H](C)O)C(=O)N1CCC[C@H]1C(=O)N[C@@H](CO)C(=O)N[C@@H](CO)C(=O)N[C@H](C(=O)N[C@@H](CC(N)=O)C(=O)N[C@H](C(=O)NCC(=O)N1CCC[C@H]1C(=O)N[C@@H](CC(N)=O)C(=O)N[C@H](C(=O)N[C@@H](Cc1ccccc1)C(N)=O)[C@@H](C)O)C(C)C)[C@@H](C)O
B5: N^ε1-[(4S)-4-carboxy-4-(19-carboxynonadecanoylamino)butanoyl]-[His14,Arg17,Pro21,Pro27,Pro34,Pro37]-h-amylin (peptide)
peptide: K([γGlu-C20 diacid])CNTATCATQRLAHFLRHSSPNFGAIPSSTNVGPNTP-NH2
modifications: disulfide 2-7; N-terminus assumed
SMILES: CC[C@H](C)[C@H](NC(=O)[C@H](C)NC(=O)CNC(=O)[C@H](Cc1ccccc1)NC(=O)[C@H](CC(N)=O)NC(=O)[C@@H]1CCCN1C(=O)[C@H](CO)NC(=O)[C@H](CO)NC(=O)[C@H](Cc1c[nH]cn1)NC(=O)[C@H](CCCNC(=N)N)NC(=O)[C@H](CC(C)C)NC(=O)[C@H](Cc1ccccc1)NC(=O)[C@H](Cc1c[nH]cn1)NC(=O)[C@H](C)NC(=O)[C@H](CC(C)C)NC(=O)[C@H](CCCNC(=N)N)NC(=O)[C@H](CCC(N)=O)NC(=O)[C@@H](NC(=O)[C@H](C)NC(=O)[C@@H]1CSSC[C@H](NC(=O)[C@@H](N)CCCCNC(=O)CC[C@H](NC(=O)CCCCCCCCCCCCCCCCCCC(=O)O)C(=O)O)C(=O)N[C@@H](CC(N)=O)C(=O)N[C@@H]([C@@H](C)O)C(=O)N[C@@H](C)C(=O)N[C@@H]([C@@H](C)O)C(=O)N1)[C@@H](C)O)C(=O)N1CCC[C@H]1C(=O)N[C@@H](CO)C(=O)N[C@@H](CO)C(=O)N[C@H](C(=O)N[C@@H](CC(N)=O)C(=O)N[C@H](C(=O)NCC(=O)N1CCC[C@H]1C(=O)N[C@@H](CC(N)=O)C(=O)N[C@H](C(=O)N1CCC[C@H]1C(N)=O)[C@@H](C)O)C(C)C)[C@@H](C)O
B6: N^-1-[(4S)-4-carboxy-4-(19-carboxynonadecanoylamino)butanoyl]-Gly[Arg1,Ala14,Arg17,Pro21,Pro27,His34]-h-amylin (peptide)
peptide: {C20 diacid-γGlu}-GRCNTATCATQRLAAFLRHSSPNFGAIPSSTNVGHNTY-NH2
modifications: disulfide 3-8
SMILES: CC[C@H](C)[C@H](NC(=O)[C@H](C)NC(=O)CNC(=O)[C@H](Cc1ccccc1)NC(=O)[C@H](CC(N)=O)NC(=O)[C@@H]1CCCN1C(=O)[C@H](CO)NC(=O)[C@H](CO)NC(=O)[C@H](Cc1c[nH]cn1)NC(=O)[C@H](CCCNC(=N)N)NC(=O)[C@H](CC(C)C)NC(=O)[C@H](Cc1ccccc1)NC(=O)[C@H](C)NC(=O)[C@H](C)NC(=O)[C@H](CC(C)C)NC(=O)[C@H](CCCNC(=N)N)NC(=O)[C@H](CCC(N)=O)NC(=O)[C@@H](NC(=O)[C@H](C)NC(=O)[C@@H]1CSSC[C@H](NC(=O)[C@H](CCCNC(=N)N)NC(=O)CNC(=O)CC[C@H](NC(=O)CCCCCCCCCCCCCCCCCCC(=O)O)C(=O)O)C(=O)N[C@@H](CC(N)=O)C(=O)N[C@@H]([C@@H](C)O)C(=O)N[C@@H](C)C(=O)N[C@@H]([C@@H](C)O)C(=O)N1)[C@@H](C)O)C(=O)N1CCC[C@H]1C(=O)N[C@@H](CO)C(=O)N[C@@H](CO)C(=O)N[C@H](C(=O)N[C@@H](CC(N)=O)C(=O)N[C@H](C(=O)NCC(=O)N[C@@H](Cc1c[nH]cn1)C(=O)N[C@@H](CC(N)=O)C(=O)N[C@H](C(=O)N[C@@H](Cc1ccc(O)cc1)C(N)=O)[C@@H](C)O)C(C)C)[C@@H](C)O

Numbered stars: 1 amine (or outer) side, 2 acyl side, 3 side chain; on linkers, the order of the positions; unused ones are H or OH. Bridge positions count the residues as written; N and C are the ends. Square brackets hold non-standard residues; d marks the D form. Side chains are listed from the residue outwards. Ends that are not written are not given here. * marks the point of attachment. C20 diacid = O=C(O)CCCCCCCCCCCCCCCCCCC(=O)*; γGlu = O=C(O)[C@H](CCC(=O)[*:2])N[*:1]

The target in this assay is T1, human amylin receptor (amylin 3(a) …). In words: SPA displacement of 125I-rat amylin, hAmylin 3(a) receptor membranes. The procedure, abridged:
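Cell membranes were prepared by homogenisation in Na-HEPES/EDTA buffer, pH 7.4, and stored at −80° C. They were then coupled to SPA beads at 35 ng/μL final and exposed to compounds in assay buffer containing CaCl2, MgCl₂, OA and Tween20. After 120 min at 25° C, plates were counted and IC₅₀ derived.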
With B1, the IC50 is 0.214 nM.

In the case of B2, the IC50 worked out at 0.365 nM.

Consider B3, for which the IC50 is 0.533 nM.

In the case of K([γGlu-γGlu-C20 diacid])CNTATCATQRLAEFLRHSSPNFGAIPSSTNVGPHTY-NH2 (disulfide 2-7 (inferred)), the IC50 amounted to 0.377 nM.

Regarding B4, the IC50 amounted to 0.152 nM.

With B5, the IC50 was determined as 0.131 nM.

As for K([γGlu-γGlu-C20 diacid])CNTATCATQRLADFLRHSSPNFGAIPSSTNVGPRTY-NH2 (disulfide 2-7, also called compound 130), the IC50 is 0.453 nM.

In the case of B6, the IC50 stood at 0.426 nM.
